According to patent publication US20210155676A1 (Gilead, published 2021):

How the values were obtained:
Human FcRn [1] = target: T1, Human FcRn (human, UniProt P55899 24-297; P61769 21-119); experiment: ELISA, pH 7.0/6.0 ratio relative to PGT121
T1 construct: also called neonatal Fc receptor
Description: (§1) The binding of antibodies to FcRn of various species at different pHs was determined. A 96-well Maxisorp plate was coated with 100 ul of 5 μg/ml FcRn. The plate was incubated overnight at 4° C., and then blocked with 4% skim milk for 2 hr at room temperature after washing 3 times with 0.05% Tween 20 washing buffer. The plate was incubated with 3 fold serial dilution of primary antibody for 1 hr at room temperature. The plate was then washed 3 times and 100 of Fab-anti-human Fab-HRP or Goat anti-human IgG-HRP secondary antibody diluted in 4% skimmed milk was added. Plates were then incubated 50 min at room temperature, washed three times, and 100 μL fresh TMB substrate was added. Plates were developed for 3 minutes on bench with gentle shaking. Plate was quenched with 100 μL 1M HCl, shaken briefly, read at A450 on a spectramax m5 plate reader.

[2] = target: HIV-1 Env of subtype B isolate MGRM-B-111 (HIV-1); experiment: cell-based or functional assay
[3] = target: HIV-1 Env of subtype B isolate MGRM-B-136 (HIV-1); experiment: cell-based or functional assay
[4] = target: HIV-1 Env of subtype B isolate MGRM-B-112 (HIV-1); experiment: cell-based or functional assay
[5] = target: HIV-1 Env of subtype B isolate MGRM-B-110 (HIV-1); experiment: cell-based or functional assay
[6] = target: HIV-1 Env of subtype B isolate MGRM-B-132 (HIV-1); experiment: cell-based or functional assay
[7] = target: HIV-1 Env of subtype B isolate MGRM-B-105 (HIV-1); experiment: cell-based or functional assay
[8] = target: HIV-1 Env of subtype B isolate MGRM-B-106 (HIV-1); experiment: cell-based or functional assay
[9] = target: HIV-1 Env of subtype B isolate MGRM-B-118 (HIV-1); experiment: cell-based or functional assay
[10] = target: HIV-1 Env of subtype B isolate MGRM-B-115 (HIV-1); experiment: cell-based or functional assay
Human FcRn [11] = target: T1, Human FcRn; experiment: ELISA, FcRn coated on plate, pH 6.0
Description: as §1

[12] = target: HIV-1 Env of subtype B virus 15-101757 (HIV-1); experiment: cell-based or functional assay
[13] = target: HIV-1 Env of subtype B virus 15-124914 (HIV-1); experiment: cell-based or functional assay
[14] = target: HIV-1 Env of subtype B virus 15-124962 (HIV-1); experiment: cell-based or functional assay
[15] = target: HIV-1 Env of subtype B virus 15-124906 (HIV-1); experiment: cell-based or functional assay
[16] = target: HIV-1 Env of subtype B virus 15-101608 (HIV-1); experiment: cell-based or functional assay
[17] = target: HIV-1 Env of subtype B virus 15-124970 (HIV-1); experiment: cell-based or functional assay
[18] = target: HIV-1 Env of subtype B virus 15-124963 (HIV-1); experiment: cell-based or functional assay
[19] = target: HIV-1 Env of subtype B virus 15-124986 (HIV-1); experiment: cell-based or functional assay
[20] = target: HIV-1 Env of subtype B virus 15-124950 (HIV-1); experiment: cell-based or functional assay
[21] = target: HIV-1 Env of subtype B virus 15-102514 (HIV-1); experiment: cell-based or functional assay
[22] = target: HIV-1 Env of subtype B virus 15-124975 (HIV-1); experiment: cell-based or functional assay
[23] = target: HIV-1 Env of subtype B virus 15-124918 (HIV-1); experiment: cell-based or functional assay
[24] = target: HIV-1 Env of subtype B virus 15-124934 (HIV-1); experiment: cell-based or functional assay
[25] = target: HIV-1 Env of subtype B virus 15-124964 (HIV-1); experiment: cell-based or functional assay
[26] = target: HIV-1 Env of subtype B virus 15-124904 (HIV-1); experiment: cell-based or functional assay
[27] = target: HIV-1 Env of subtype B virus 15-124987 (HIV-1); experiment: cell-based or functional assay
[28] = target: human FcγRIIIA on primary NK effector cells (human, UniProt P08637 17-254); experiment: cell-based or functional assay
Human FcRn [29] = target: T1, Human FcRn; experiment: ELISA, ratio of EC50 at pH 7.0 to EC50 at pH 6.0
Description: as §1

Human FcRn [30] = target: T1, Human FcRn; experiment: ELISA, FcRn coated on plate, pH 7.0
Description: as §1

T1 sequence (P55899 24-297 limits assumed, chain 1 of 2): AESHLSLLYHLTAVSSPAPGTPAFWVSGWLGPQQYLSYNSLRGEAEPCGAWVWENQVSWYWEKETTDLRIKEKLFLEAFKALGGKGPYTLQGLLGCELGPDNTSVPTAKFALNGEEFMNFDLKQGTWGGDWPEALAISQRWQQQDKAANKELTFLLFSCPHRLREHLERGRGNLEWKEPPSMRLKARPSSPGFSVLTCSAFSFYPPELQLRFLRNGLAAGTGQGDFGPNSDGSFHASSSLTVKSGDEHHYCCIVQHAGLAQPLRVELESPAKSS
T1 sequence (P61769 21-119 limits assumed, chain 2 of 2): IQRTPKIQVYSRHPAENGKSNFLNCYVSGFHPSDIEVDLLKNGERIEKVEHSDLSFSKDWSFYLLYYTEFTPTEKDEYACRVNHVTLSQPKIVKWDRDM
human FcγRIIIA on primary NK effector cells, sequence (P08637 17-254): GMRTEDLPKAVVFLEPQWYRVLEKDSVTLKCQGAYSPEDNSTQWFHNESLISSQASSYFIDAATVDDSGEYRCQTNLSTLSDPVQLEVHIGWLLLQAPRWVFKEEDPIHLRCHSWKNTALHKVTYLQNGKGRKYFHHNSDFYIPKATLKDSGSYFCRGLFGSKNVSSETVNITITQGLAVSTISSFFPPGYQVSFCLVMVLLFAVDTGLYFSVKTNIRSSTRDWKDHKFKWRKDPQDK

B1: PGT121.60 hIgG1/hLambda (antibody)
heavy: QMQLQESGPGLVKPSETLSLTCSVSGASISDSYWSWIRRSPGKGLEWIGYVHKSGDTNYNPSLKSRVHLSLDTSKNQVSLSLTGVTAADSGKYYCARTLHGRRIYGIVAFNEWFTYFYMDVWGTGTQVTVSSASTKGPSVFPLAPSSKSTSGGTAALGCLVKDYFPEPVTVSWNSGALTSGVHTFPAVLQSSGLYSLSSVVTVPSSSLGTQTYICNVNHKPSNTKVDKKVEPKSCDKTHTCPPCPAPELLAGPDVFLFPPKPKDTLMISRTPEVTCVVVDVSHEDPEVKFNWYVDGVEVHNAKTKPREEQYNSTYRVVSVLTVLHQDWLNGKEYKCKVSNKALPLPEEKTISKAKGQPREPQVYTLPPSREEMTKNQVSLTCLVKGFYPSDIAVEWESNGQPENNYKTTPPVLDSDGSFFLYSKLTVDKSRWQQGNVFSCSVLHEALHSHYTQKSLSLSPGK
light: not shown
Fold vs PGT121 (Human FcRn [1]): 11 fold | PGT121 IC50/PGT121.60 IC50 [2]: 2.2 fold | neutralization IC50 [2]: 0.955 µg/mL | PGT121 IC50/PGT121.60 IC50 [3]: 1.2 fold | neutralization IC50 [3]: 0.0071 µg/mL | PGT121 IC50/PGT121.60 IC50 [4]: 2.5 fold | neutralization IC50 [4]: 0.0058 µg/mL | PGT121 IC50/PGT121.60 IC50 [5]: 3.3 fold | neutralization IC50 [5]: 0.0113 µg/mL | PGT121 IC50/PGT121.60 IC50 [6]: 1.2 fold | neutralization IC50 [6]: 0.0077 µg/mL | PGT121 IC50/PGT121.60 IC50 [7]: 2.9 fold | neutralization IC50 [7]: 0.0076 µg/mL | PGT121 IC50/PGT121.60 IC50 [8]: 4.1 fold | neutralization IC50 [8]: 0.001 µg/mL | PGT121 IC50/PGT121.60 IC50 [9]: 0.7 fold | neutralization IC50 [9]: 3.31 µg/mL | PGT121 IC50/PGT121.60 IC50 [10]: 1.7 fold | neutralization IC50 [10]: 0.141 µg/mL | EC50 (Human FcRn [11]): 0.22 nM | PGT121 IC50/PGT121.60 IC50 [12]: 4.7 fold | neutralization IC50 [12]: 0.0132 µg/mL | PGT121 IC50/PGT121.60 IC50 [13]: 3 fold | neutralization IC50 [13]: 0.002 µg/mL | PGT121 IC50/PGT121.60 IC50 [14]: 3.4 fold | neutralization IC50 [14]: 0.0277 µg/mL | PGT121 IC50/PGT121.60 IC50 [15]: 5.3 fold | neutralization IC50 [15]: 0.0103 µg/mL | PGT121 IC50/PGT121.60 IC50 [16]: 3.6 fold | neutralization IC50 [16]: 1.84 µg/mL | PGT121 IC50/PGT121.60 IC50 [17]: 3.9 fold | neutralization IC50 [17]: 0.0285 µg/mL | PGT121 IC50/PGT121.60 IC50 [18]: 8.2 fold | neutralization IC50 [18]: 2.05 µg/mL | PGT121 IC50/PGT121.60 IC50 [19]: 3.2 fold | neutralization IC50 [19]: 0.0015 µg/mL | PGT121 IC50/PGT121.60 IC50 [20]: 3 fold | neutralization IC50 [20]: 0.0995 µg/mL | PGT121 IC50/PGT121.60 IC50 [21]: 3.5 fold | neutralization IC50 [21]: 0.0128 µg/mL | PGT121 IC50/PGT121.60 IC50 [22]: 5.5 fold | neutralization IC50 [22]: 0.105 µg/mL | PGT121 IC50/PGT121.60 IC50 [23]: 3 fold | neutralization IC50 [23]: 0.0018 µg/mL | PGT121 IC50/PGT121.60 IC50 [24]: 12.1 fold | neutralization IC50 [24]: 0.797 µg/mL | PGT121 IC50/PGT121.60 IC50 [25]: 3.5 fold | neutralization IC50 [25]: 0.0026 µg/mL | PGT121 IC50/PGT121.60 IC50 [26]: 3.1 fold | neutralization IC50 [26]: 0.0121 µg/mL | PGT121 IC50/PGT121.60 IC50 [27]: 3.1 fold | neutralization IC50 [27]: 0.0163 µg/mL | ADCC AUC, NK donor A4813, primary CD4+ T cells infected with HT593 [28]: 185 | ADCC AUC, NK donor A4813, primary CD4+ T cells infected with US657 [28]: 220 | ADCC EC50, NK donor A4813, primary CD4+ T cells infected with HT593 [28]: 0.7 nM | ADCC EC50, NK donor A4813, primary CD4+ T cells infected with US657 [28]: 1.2 nM | ADCC Emax, NK donor A4813, primary CD4+ T cells infected with HT593 [28]: 67% | ADCC Emax, NK donor A4813, primary CD4+ T cells infected with US657 [28]: 72% | Ratio pH 7.0/6.0 (Human FcRn [29]): 355 | EC50 (Human FcRn [30]): 78 nM
